Publication PMC4403245

Molecular target: GST-tagged KAHRP fragment K1D (Plasmodium falciparum) (UniProt P06719)
Assay: SPR

Sequence of UniProt P06719 (P06719 35-657): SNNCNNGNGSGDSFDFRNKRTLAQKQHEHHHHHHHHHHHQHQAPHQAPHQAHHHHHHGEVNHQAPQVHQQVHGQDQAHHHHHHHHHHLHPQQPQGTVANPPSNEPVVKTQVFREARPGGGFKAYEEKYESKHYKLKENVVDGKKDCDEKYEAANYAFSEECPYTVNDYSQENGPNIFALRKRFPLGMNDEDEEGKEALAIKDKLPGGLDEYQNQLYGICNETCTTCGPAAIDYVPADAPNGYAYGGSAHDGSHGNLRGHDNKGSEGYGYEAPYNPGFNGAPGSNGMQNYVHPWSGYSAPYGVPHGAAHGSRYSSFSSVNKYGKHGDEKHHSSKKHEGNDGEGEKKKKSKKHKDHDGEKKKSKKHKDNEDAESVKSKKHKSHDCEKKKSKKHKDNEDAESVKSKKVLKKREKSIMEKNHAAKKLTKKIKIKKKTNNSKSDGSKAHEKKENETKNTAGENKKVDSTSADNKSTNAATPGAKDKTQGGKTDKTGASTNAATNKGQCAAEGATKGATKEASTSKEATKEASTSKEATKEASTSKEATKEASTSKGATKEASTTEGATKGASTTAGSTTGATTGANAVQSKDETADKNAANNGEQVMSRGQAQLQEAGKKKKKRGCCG

MBP-tagged ankyrin R N-terminal 89 kDa membrane binding domain (from UniProt P16157 1-827) (domain or fragment)
Kd: 38 nM
koff: 0.00161 s⁻¹
kon: 42800 M⁻¹ s⁻¹

MBP-tagged D3 subdomain of the ankyrin R membrane-binding domain (from UniProt P16157 404-601) (domain or fragment)
Kd: 46 nM
koff: 0.00137 s⁻¹
kon: 29900 M⁻¹ s⁻¹
